T1: SN-F, fusion glycoprotein of Sendai virus (Sendai virus (SN), UniProt P04855)
T1 sequence: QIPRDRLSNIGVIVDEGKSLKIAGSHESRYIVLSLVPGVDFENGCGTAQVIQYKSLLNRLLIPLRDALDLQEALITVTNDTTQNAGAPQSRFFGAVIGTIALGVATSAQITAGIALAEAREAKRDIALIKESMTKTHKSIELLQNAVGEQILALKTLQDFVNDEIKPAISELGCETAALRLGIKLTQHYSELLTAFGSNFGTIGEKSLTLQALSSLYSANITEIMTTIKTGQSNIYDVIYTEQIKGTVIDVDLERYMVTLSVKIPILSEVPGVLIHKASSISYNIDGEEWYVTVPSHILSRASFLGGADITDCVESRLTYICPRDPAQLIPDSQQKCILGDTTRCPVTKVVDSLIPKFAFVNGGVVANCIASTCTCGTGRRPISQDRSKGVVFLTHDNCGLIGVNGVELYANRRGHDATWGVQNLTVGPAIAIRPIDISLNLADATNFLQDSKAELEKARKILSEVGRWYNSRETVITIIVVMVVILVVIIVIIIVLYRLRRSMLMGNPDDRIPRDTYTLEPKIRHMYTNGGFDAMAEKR

T2: SN-F (Sendai virus, UniProt P04855)
T2 sequence (P04855 117-565 limits assumed): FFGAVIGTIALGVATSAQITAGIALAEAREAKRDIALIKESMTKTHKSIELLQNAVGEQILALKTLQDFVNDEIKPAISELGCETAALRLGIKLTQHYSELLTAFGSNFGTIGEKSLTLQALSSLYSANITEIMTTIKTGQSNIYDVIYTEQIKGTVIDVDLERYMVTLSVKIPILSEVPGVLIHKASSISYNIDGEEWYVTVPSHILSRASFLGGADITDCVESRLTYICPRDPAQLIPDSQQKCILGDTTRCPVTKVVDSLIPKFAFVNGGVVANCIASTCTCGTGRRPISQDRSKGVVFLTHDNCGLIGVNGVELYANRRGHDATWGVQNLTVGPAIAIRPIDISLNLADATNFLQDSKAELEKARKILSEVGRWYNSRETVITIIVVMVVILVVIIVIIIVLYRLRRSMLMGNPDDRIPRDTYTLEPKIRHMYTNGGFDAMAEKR
T2 sequence (P04855 26-116 partner limits assumed): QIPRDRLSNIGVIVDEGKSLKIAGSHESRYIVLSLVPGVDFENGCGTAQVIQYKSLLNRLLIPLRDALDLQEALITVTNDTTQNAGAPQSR


What was measured:
[1] = molecular target: T1, SN-F, fusion glycoprotein of Sendai …; test: cell-based or functional assay
[2] = test system: HeLa-T4 cells; type: cell-based
[3] = molecular target: T2, SN-F; type: cell-based
[4] = test system: guinea pig erythrocytes; type: cell-based

Row | Molecule | Fusion activity (%), β-galactosidase production in the fusion dependent reporter gene activation assay [1] | Cell surface expression (%) [2] [%] | Relative fusion promoting activity b/a [3] | cell fusion / syncytium formation with SN-F observed by microscopy [3] | HAD activity as percentage of wild type SN-HN hemadsorption [4] | hemadsorption observed under the microscope [4] | fusion promoting activity, percentage of wild type SN-HN [3] | Fusion activity (5) [3]
1 | SN(140) chimeric HN protein (other) MDGDRGKRDSYWSTSPSGSTTKPASGWERSSKADTWLLILSFTQWALSIATVIICIIISARQGYSMKEYSMTVEALNMSSREVKESLTSLIRQEVIARAVNIQSSVQTGIPVLLNKNSRDVIQMIDKSCSRQELTQHCESRITHDVGIKPLNPDDFWRCTSGLPSLMKTPKIRLMPGPGLLAMPTTVDGCVRTPSLVINDLIYAYTSNLITRGCQDIGKSYQVLQIGIITVNSDLVPDLNPRISHTFNINDNRKSCSLALLNTDVYQLCSTPKVDERSDYASSGIEDIVLDIVNHDGSISTTRFKNNNISFDQPYAALYPSVGPGIYYKGKIIFLGYGGLEHPINENAICNTTGCPGKTQRDCNQASHSPWFSDRRMVNSIIVVDKGLNSIPKLKVWTISMRQNYWGSEGRLLLLGNKIYIYTRSTSWHSKLQLGIIDITDYSDIRIKWTWHNVLSRPGNNECPWGHSCPDGCITGVYTDAYPLNPTGSIVSSVILDSQKSRVNPVITYSTSTERVNELAIRNKTLSAGYTTTSCITHYNKGYCFHIVEINHKSLDTFQPMLFKTEIPKSCS | 44.6 % of SN-HN wt with SN-F | 68.1 | 0.66 | lower level of syncytium formation | comparable or higher HAD activity than that of SN-HN | high levels of hemadsorption | – | –
2 | SN(137) chimeric HN protein (other) MDGDRGKRDSYWSTSPSGSTTKPASGWERSSKADTWLLILSFTQWALSIATVIICIIISARQGYSMKEYSMTVEALNMSSREVKESLTSLIRQEVIARAVNIQSSVQTGIPVLLNKNSRDVIQMIDKSCSRQELTQHPPQRITHDVGIKPLNPDDFWRCTSGLPSLMKTPKIRLMPGPGLLAMPTTVDGCVRTPSLVINDLIYAYTSNLITRGCQDIGKSYQVLQIGIITVNSDLVPDLNPRISHTFNINDNRKSCSLALLNTDVYQLCSTPKVDERSDYASSGIEDIVLDIVNHDGSISTTRFKNNNISFDQPYAALYPSVGPGIYYKGKIIFLGYGGLEHPINENAICNTTGCPGKTQRDCNQASHSPWFSDRRMVNSIIVVDKGLNSIPKLKVWTISMRQNYWGSEGRLLLLGNKIYIYTRSTSWHSKLQLGIIDITDYSDIRIKWTWHNVLSRPGNNECPWGHSCPDGCITGVYTDAYPLNPTGSIVSSVILDSQKSRVNPVITYSTSTERVNELAIRNKTLSAGYTTTSCITHYNKGYCFHIVEINHKSLDTFQPMLFKTEIPKSCS | 0 % of SN-HN wt with SN-F | – | – | – | 27.5% | lower activities | did not show any significant fusion promoting activity | –
3 | SN(27-140) chimeric HN protein (other) MEYWKHTNHGKDAGNELETSMATHGNWERSSKADTWLLILSFTQWALSIATVIICIIISARQGYSMKEYSMTVEALNMSSREVKESLTSLIRQEVIARAVNIQSSVQTGIPVLLNKNSRDVIQMIDKSCSRQELTQHCESRITHDVGIKPLNPDDFWRCTSGLPSLMKTPKIRLMPGPGLLAMPTTVDGCVRTPSLVINDLIYAYTSNLITRGCQDIGKSYQVLQIGIITVNSDLVPDLNPRISHTFNINDNRKSCSLALLNTDVYQLCSTPKVDERSDYASSGIEDIVLDIVNHDGSISTTRFKNNNISFDQPYAALYPSVGPGIYYKGKIIFLGYGGLEHPINENAICNTTGCPGKTQRDCNQASHSPWFSDRRMVNSIIVVDKGLNSIPKLKVWTISMRQNYWGSEGRLLLLGNKIYIYTRSTSWHSKLQLGIIDITDYSDIRIKWTWHNVLSRPGNNECPWGHSCPDGCITGVYTDAYPLNPTGSIVSSVILDSQKSRVNPVITYSTSTERVNELAIRNKTLSAGYTTTSCITHYNKGYCFHIVEINHKSLDTFQPMLFKTEIPKSCS | 79.7 % of SN-HN wt with SN-F | 75.6 | – | Syncytium formation was observed | comparable or higher HAD activity than that of SN-HN | high levels of hemadsorption | – | –
4 | SN(44-140) chimeric HN protein (other) MEYWKHTNHGKDAGNELETSMATHGNKITNKITYILWTIILVLQWALSIATVIICIIISARQGYSMKEYSMTVEALNMSSREVKESLTSLIRQEVIARAVNIQSSVQTGIPVLLNKNSRDVIQMIDKSCSRQELTQHCESRITHDVGIKPLNPDDFWRCTSGLPSLMKTPKIRLMPGPGLLAMPTTVDGCVRTPSLVINDLIYAYTSNLITRGCQDIGKSYQVLQIGIITVNSDLVPDLNPRISHTFNINDNRKSCSLALLNTDVYQLCSTPKVDERSDYASSGIEDIVLDIVNHDGSISTTRFKNNNISFDQPYAALYPSVGPGIYYKGKIIFLGYGGLEHPINENAICNTTGCPGKTQRDCNQASHSPWFSDRRMVNSIIVVDKGLNSIPKLKVWTISMRQNYWGSEGRLLLLGNKIYIYTRSTSWHSKLQLGIIDITDYSDIRIKWTWHNVLSRPGNNECPWGHSCPDGCITGVYTDAYPLNPTGSIVSSVILDSQKSRVNPVITYSTSTERVNELAIRNKTLSAGYTTTSCITHYNKGYCFHIVEINHKSLDTFQPMLFKTEIPKSCS | 88.7 % of SN-HN wt with SN-F | 126.6 | 0.70 | – | comparable or higher HAD activity than that of SN-HN | high levels of hemadsorption | – | –
5 | SN-HN: wild type Sendai virus hemagglutinin-neuraminidase (HN) protein (protein) MDGDRGKRDSYWSTSPSGSTTKPASGWERSSKADTWLLILSFTQWALSIATVIICIIISARQGYSMKEYSMTVEALNMSSREVKESLTSLIRQEVIARAVNIQSSVQTGIPVLLNKNSRDVIQMIDKSCSRQELTQHCESTIAVHHADGIAPLEPHSFWRCPVGEPYLSSDPEISLLPGPSLLSGSTTISGCVRLPSLSIGEAIYAYSSNLITQGCADIGKSYQVLQLGYISLNSDMFPDLNPVVSHTYDINDNRKSCSVVATGTRGYQLCSMPTVDERTDYSSDGIEDLVLDVLDLKGRTKSHRYRNSEVDLDHPFSALYPSVGNGIATEGSLIFLGYGGLTTPLQGDTKCRTQGCQQVSQDTCNEALKITWLGGKQVVSVIIQVNDYLSERPKIRVTTIPITQNYLGAEGRLLKLGDRVYIYTRSSGWHSQLQIGVLDVSHPLTINWTPHEALSRPGNKECNWYNKCPKECISGVYTDAYPLSPDAANVATVTLYANTSRVNPTIMYSNTTNIINMLRIKDVQLEAAYTTTSCITHFGKGYCFHIIEINQKSLNTLQPMLFKTSIPKLCKAES | – | 163.9 | 0.61 | Extensive cell fusion | – | high levels of hemadsorption | – | 100.00
6 | PI3-HN: wild type human parainfluenza type 3 virus HN protein (protein) MEYWKHTNHGKDAGNELETSMATHGNKITNKITYILWTIILVLLSIVFIIVLINSIKSEKAHESLLQDVNNEFMEVTEKIQMASDNINDLIQSGVNTRLLTIQSHVQNYIPISLTQQMSDLRKFISEITIRNDNQEVPPQRITHDVGIKPLNPDDFWRCTSGLPSLMKTPKIRLMPGPGLLAMPTTVDGCVRTPSLVINDLIYAYTSNLITRGCQDIGKSYQVLQIGIITVNSDLVPDLNPRISHTFNINDNRKSCSLALLNTDVYQLCSTPKVDERSDYASSGIEDIVLDIVNHDGSISTTRFKNNNISFDQPYAALYPSVGPGIYYKGKIIFLGYGGLEHPINENAICNTTGCPGKTQRDCNQASHSPWFSDRRMVNSIIVVDKGLNSIPKLKVWTISMRQNYWGSEGRLLLLGNKIYIYTRSTSWHSKLQLGIIDITDYSDIRIKWTWHNVLSRPGNNECPWGHSCPDGCITGVYTDAYPLNPTGSIVSSVILDSQKSRVNPVITYSTSTERVNELAIRNKTLSAGYTTTSCITHYNKGYCFHIVEINHKSLDTFQPMLFKTEIPKSCS | – | 100.0 | 0.03 | no cell fusion was observed | – | – | – | 3.47
